The text below walks through data of the Human Domainome abundance scans (Beltran et al. 2025).

± gives the uncertainty stated by the source.

The nature of the series: abundance fitness (aPCA) (normalised: wild type 0, dead -1); higher = more abundant; growth selection in yeast, the domain comes from the species named. To be noted: Homo sapiens.
In turn, “SAFB-like transcription modulator T42P, Q9NWH9” gave an abundance fitness of -0.729 ± 0.051.
The figure for “SAFB-like transcription modulator T42Q, Q9NWH9” is 0.127 ± 0.1.
Substance “SAFB-like transcription modulator T42R, Q9NWH9” displayed an abundance fitness of 0.057 ± 0.084.
The figure for “SAFB-like transcription modulator T42S, Q9NWH9” is 0.071 ± 0.095; for “SAFB-like transcription modulator T42V, Q9NWH9” it is -0.488 ± 0.099; for “SAFB-like transcription modulator T42W, Q9NWH9” it is -0.315 ± 0.095.
Next, “SAFB-like transcription modulator T42Y, Q9NWH9”: 0.194 ± 0.11.
For “SAFB-like transcription modulator T46A, Q9NWH9”, the abundance fitness was -0.062 ± 0.068.
Next, “SAFB-like transcription modulator T46C, Q9NWH9”: 0.066 ± 0.074; “SAFB-like transcription modulator T46D, Q9NWH9”: -0.235 ± 0.088; “SAFB-like transcription modulator T46E, Q9NWH9”: 0.004 ± 0.068.
Next, “SAFB-like transcription modulator T46F, Q9NWH9”: -0.358 ± 0.088; “SAFB-like transcription modulator T46G, Q9NWH9”: -0.094 ± 0.06; “SAFB-like transcription modulator T46H, Q9NWH9”: 0.011 ± 0.071.
The figure for “SAFB-like transcription modulator T46I, Q9NWH9” is -0.107 ± 0.073; for “SAFB-like transcription modulator T46K, Q9NWH9” it is 0.074 ± 0.09.
In turn, “SAFB-like transcription modulator T46L, Q9NWH9” came in with an abundance fitness of -0.082 ± 0.052.
The figure for “SAFB-like transcription modulator T46M, Q9NWH9” is 0.111 ± 0.073; for “SAFB-like transcription modulator T46N, Q9NWH9” it is 0.103 ± 0.093; for “SAFB-like transcription modulator T46P, Q9NWH9” it is 0.037 ± 0.071.
The figure for “SAFB-like transcription modulator T46Q, Q9NWH9” is -0.137 ± 0.074.
As for “SAFB-like transcription modulator T46R, Q9NWH9”, the abundance fitness was -0.163 ± 0.064.
Next, “SAFB-like transcription modulator T46S, Q9NWH9”: 0.05 ± 0.059.
Next, “SAFB-like transcription modulator T46W, Q9NWH9”: -0.129 ± 0.038; “SAFB-like transcription modulator T46Y, Q9NWH9”: -0.097 ± 0.088; “SAFB-like transcription modulator V27A, Q9NWH9”: -0.395 ± 0.1.
Next, “SAFB-like transcription modulator V27C, Q9NWH9”: -0.067 ± 0.094.
“SAFB-like transcription modulator V27D, Q9NWH9”: the abundance fitness was -0.127 ± 0.12.
Next, “SAFB-like transcription modulator V27E, Q9NWH9”: -0.153 ± 0.11; “SAFB-like transcription modulator V27F, Q9NWH9”: -0.585 ± 0.15.
Next, “SAFB-like transcription modulator V27G, Q9NWH9”: -0.405 ± 0.088; “SAFB-like transcription modulator V27I, Q9NWH9”: -0.011 ± 0.054; “SAFB-like transcription modulator V27K, Q9NWH9”: -0.533 ± 0.27.
The figure for “SAFB-like transcription modulator V27L, Q9NWH9” is -0.21 ± 0.082; for “SAFB-like transcription modulator V27M, Q9NWH9” it is 0.158 ± 0.099.
“SAFB-like transcription modulator V27N, Q9NWH9” came in with an abundance fitness of -0.453 ± 0.16.
The figure for “SAFB-like transcription modulator V27Q, Q9NWH9” is -0.426 ± 0.15.
The figure for “SAFB-like transcription modulator V27R, Q9NWH9” is -0.241 ± 0.07.
“SAFB-like transcription modulator V27S, Q9NWH9”: the abundance fitness is -0.417 ± 0.097.
The figure for “SAFB-like transcription modulator V27T, Q9NWH9” is 0.086 ± 0.092; for “SAFB-like transcription modulator V27W, Q9NWH9” it is -0.396 ± 0.09; for “SAFB-like transcription modulator V27Y, Q9NWH9” it is -0.29 ± 0.24.
Next, “SAFB-like transcription modulator V44A, Q9NWH9”: 0.064 ± 0.039; “SAFB-like transcription modulator V44C, Q9NWH9”: 0.036 ± 0.076.
Next, “SAFB-like transcription modulator V44D, Q9NWH9”: 0.055 ± 0.072.
As to “SAFB-like transcription modulator V44E, Q9NWH9”, the abundance fitness is -0.124 ± 0.075.
The figure for “SAFB-like transcription modulator V44F, Q9NWH9” is 0.002 ± 0.075.
“SAFB-like transcription modulator V44H, Q9NWH9” returned an abundance fitness of 0.126 ± 0.089.
The substance “SAFB-like transcription modulator V44I, Q9NWH9” displayed an abundance fitness of -0.057 ± 0.054.
Next, “SAFB-like transcription modulator V44K, Q9NWH9”: -0.233 ± 0.088.
The figure for “SAFB-like transcription modulator V44L, Q9NWH9” is -0.122 ± 0.038; for “SAFB-like transcription modulator V44M, Q9NWH9” it is -0.092 ± 0.058.
The figure for “SAFB-like transcription modulator V44N, Q9NWH9” is 0.048 ± 0.058.
Turning to “SAFB-like transcription modulator V44P, Q9NWH9”, the abundance fitness is 0.014 ± 0.049.
The figure for “SAFB-like transcription modulator V44Q, Q9NWH9” is -0.134 ± 0.078.
The substance “SAFB-like transcription modulator V44R, Q9NWH9” returned an abundance fitness of -0.054 ± 0.034.
The figure for “SAFB-like transcription modulator V44S, Q9NWH9” is 0.036 ± 0.051; for “SAFB-like transcription modulator V44T, Q9NWH9” it is -0.008 ± 0.06.
The figure for “SAFB-like transcription modulator V44W, Q9NWH9” is -0.358 ± 0.055; for “SAFB-like transcription modulator V44Y, Q9NWH9” it is -0.258 ± 0.081.
“SAFB-like transcription modulator V47A, Q9NWH9” displayed an abundance fitness of -0.025 ± 0.058.
“SAFB-like transcription modulator V47C, Q9NWH9” yielded an abundance fitness of -0.074 ± 0.037.
Next, “SAFB-like transcription modulator V47D, Q9NWH9”: -0.001 ± 0.065.
Next, “SAFB-like transcription modulator V47E, Q9NWH9”: 0.022 ± 0.068.
The substance “SAFB-like transcription modulator V47F, Q9NWH9” showed an abundance fitness of -0.447 ± 0.044.
The substance “SAFB-like transcription modulator V47G, Q9NWH9” displayed an abundance fitness of -0.28 ± 0.038.
Next, “SAFB-like transcription modulator V47H, Q9NWH9”: -0.329 ± 0.081; “SAFB-like transcription modulator V47I, Q9NWH9”: 0.051 ± 0.066; “SAFB-like transcription modulator V47K, Q9NWH9”: 0.003 ± 0.063.
The figure for “SAFB-like transcription modulator V47L, Q9NWH9” is -0.125 ± 0.038.
The figure for “SAFB-like transcription modulator V47M, Q9NWH9” is 0.013 ± 0.061; for “SAFB-like transcription modulator V47N, Q9NWH9” it is -0.079 ± 0.045.
In the case of “SAFB-like transcription modulator V47P, Q9NWH9”, the abundance fitness was -0.585 ± 0.056.
The figure for “SAFB-like transcription modulator V47Q, Q9NWH9” is 0.019 ± 0.047.
Next, “SAFB-like transcription modulator V47R, Q9NWH9”: -0.207 ± 0.043; “SAFB-like transcription modulator V47S, Q9NWH9”: -0.152 ± 0.048; “SAFB-like transcription modulator V47T, Q9NWH9”: 0.089 ± 0.064.
The figure for “SAFB-like transcription modulator V47Y, Q9NWH9” is -0.525 ± 0.044.
